B1: Isoform 2 of Bardet-Biedl syndrome 7 protein (Homo sapiens), Q8IWZ6-2 (parent)
chain: MDLILNRMDYLQVGVTSQKTMKLIPASRHRATQKVVIGDHDGVVMCFGMKKGEAAAVFKTLPGPKIARLELGGVINTPQEKIFIAAASEIRGFTKRGKQFLSFETNLTESIKAMHISGSDLFLSASYIYNHYCDCKDQHYYLSGDKINDVICLPVERLSRITPVLACQDRVLRVLQGSDVMYAVEVPGPPTVLALHNGNGGDSGEDLLFGTSDGKLALIQITTSKPVRKWEIQNEKKRGGILCIDSFDIVGDGVKDLLVGRDDGMVEVYSFDNANEPVLRFDQMLSESVTSIQGGCVGKDSYDEIVVSTYSGWVTGLTTEPIHKESGPGEELKINQEMQNKISSLRNELEHLQYKVLQERENYQQSSQSSKAKSAVPSFGINDKFTLNKDDASYSLILEVQTAIDNVLIQSDVPIDLLDVDKNSAVVSFSSCDSESNDNFLLATYRCQADTTRLELKIRSIEGQYGTLQAYVTPRIQPKTCQVRQYHIKPLSLHQRTHFIDHDRPMNTLTLTGQFSFAEVHSWVVFCLPEVPEKPPAGECVTFYFQNTFLDTQLESTYRKGEGVFKSDNISTISILKDVLSKEATKRKINLNISYEINEVSVKHTLKLIHPKLEYQLLLAKKVQLIDALKELQIHEGNTNFLIPEYHCILEEADHLQEEYKKQPAHLERLYG
partner: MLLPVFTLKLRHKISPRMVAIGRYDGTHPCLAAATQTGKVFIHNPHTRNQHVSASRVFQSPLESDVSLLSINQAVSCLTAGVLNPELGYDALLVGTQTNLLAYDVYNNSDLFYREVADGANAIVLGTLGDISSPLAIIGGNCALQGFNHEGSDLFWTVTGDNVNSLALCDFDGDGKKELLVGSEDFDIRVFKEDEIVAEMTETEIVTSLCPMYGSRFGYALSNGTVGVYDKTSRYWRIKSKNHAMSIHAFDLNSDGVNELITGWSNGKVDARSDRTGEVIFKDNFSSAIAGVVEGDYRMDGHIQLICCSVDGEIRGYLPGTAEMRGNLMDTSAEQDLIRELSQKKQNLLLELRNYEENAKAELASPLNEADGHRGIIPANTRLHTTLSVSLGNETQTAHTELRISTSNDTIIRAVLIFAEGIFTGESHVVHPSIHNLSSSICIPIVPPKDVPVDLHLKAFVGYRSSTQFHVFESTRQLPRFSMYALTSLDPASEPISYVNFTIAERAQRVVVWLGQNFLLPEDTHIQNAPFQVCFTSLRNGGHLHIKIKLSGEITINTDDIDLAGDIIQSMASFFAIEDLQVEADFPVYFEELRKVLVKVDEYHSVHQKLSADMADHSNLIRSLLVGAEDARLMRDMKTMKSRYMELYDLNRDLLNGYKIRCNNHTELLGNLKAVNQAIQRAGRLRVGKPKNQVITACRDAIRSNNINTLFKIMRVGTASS

Variants of: B1
Details: with bbs2_human BBS2, Q9BXC9

Variant	effect of a mutation on the interaction
T386E	with no effect
T386K	with no effect
T386A	with no effect
E399K	with no effect
E399A	with no effect
E399V	disrupting interaction strength
L387K	with no effect
L387E	with no effect
L387A	with no effect
D416A	with no effect
D416E	with no effect
D416K	with no effect
S411A	with no effect
S411E	with no effect
S411K	with no effect
A392E	with no effect
A392K	with no effect
L408E	with no effect
L408A	with no effect
L408K	with no effect
N406K	with no effect
N406A	with no effect
N406E	with no effect
S395E	with no effect

Variant	effect of a mutation on the interaction
S395A	with no effect
S395K	with no effect
V400E	with no effect
V400K	with no effect
V400A	with no effect
I415K	with no effect
I415A	with no effect
I415E	with no effect
L398A	with no effect
L398E	with no effect
L398K	with no effect
I404A	with no effect
I404E	with no effect
I404K	with no effect
Y394A	with no effect
Y394K	with no effect
Y394E	with no effect
S393A	with no effect
S393K	with no effect
S393E	with no effect
K389E	with no effect
K389A	with no effect
P414A	with no effect
P414E	with no effect

Variant	effect of a mutation on the interaction
P414K	with no effect
F385K	with no effect
F385E	with no effect
D391K	with no effect
D391A	with no effect
D391E	with no effect
A403E	with no effect
A403K	with no effect
Q410K	with no effect
Q410E	with no effect
Q410A	with no effect
I409E	with no effect
I409K	with no effect
I409A	with no effect
N388A	with no effect
N388E	with no effect
N388K	with no effect
D405K	with no effect
D405E	with no effect
D405A	with no effect
T402A	with no effect
T402K	with no effect
T402E	with no effect
L396K	with no effect

Variant	effect of a mutation on the interaction
L396E	with no effect
L396A	with no effect
L396P	disrupting interaction strength
Q401K	with no effect
Q401A	with no effect
Q401E	with no effect
V407E	with no effect
V407A	with no effect
V407K	with no effect
V413A	with no effect
V413K	with no effect
V413E	with no effect
D412E	with no effect
D412K	with no effect
D412A	with no effect
D390K	with no effect
D390E	with no effect
D390A	with no effect
I397E	with no effect
I397K	with no effect
I397A	with no effect

From IntAct's records for PubMed 29039417
